B1: VAMP4 (parent)
chain: IMALVAAILLLVIIILIVMKYRT

Variants of: B1
Assay: protein stability index of a GFP-peptide fusion (GPS, HEK-293T) (PSI 1-6); higher = more stable
Details: c terminus: native
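Also: lentivirally expressed fusions sorted by FACS into six bins by GFP to DsRed ratio, PSI derived from sequencing read proportions per bin multiplied by bin number.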

Protein stability index, by site and new letter:
V5: R 2.73; S 2.96; T 3.31; W 3.4; Y 3.72
A6: C 3.2; D 2.8; E 2.3; F 3.75; G 3.2; H 2.06; I 3.61; K 2.68; L 3.39; M 3.34; N 2.1; P 2.54; Q 2.37; R 2.47; S 3.71; T 3.43; V 3.23; W 2.02; Y 2.06
A7: C 3.29; D 2.37; E 1.62; F 3.74; G 3.51; H 1.84; I 3.42; K 3.15; L 3.58; M 3.09; N 2.02; P 2.75; Q 1.91; R 3.36; S 3.81; T 3.4; V 3.45; W 3.03; Y 2.94
I8: A 3.34; C 3.01; D 3.13; E 2.68; F 3.4; G 3.37; H 2.14; K 2.72; L 3.28; M 3.69; N 2.48; P 2.85; Q 2.01; R 2.72; S 3.25; T 3.25; V 3.04; W 2.47; Y 2.26
L9: A 2.92; C 3.33; D 2.68; E 1.96; F 3.56; G 3.48; H 2.52; I 3.36; K 2.5; M 3.74; N 2.4; P 2.43; Q 2.29; R 1.95; S 3.05; T 3.08; V 3.3; W 2.76; Y 2.12
L10: A 2.87; C 2.84; D 3.06; E 1.79; F 3.43; G 2.73; H 2.46; I 3.35; K 1.97; M 3.35; N 2.48; P 1.95; Q 2.67; R 3.16; S 2.86; T 2.87; V 3.53; W 2.78; Y 2.03
L11: A 3.51; C 3.27; D 2.28; E 2.27; F 3.58; G 3.71; H 2.71; I 3.33; K 2.61; M 3.33; N 2.25; P 3.43; Q 2.6; R 2.98; S 3.39; T 3.56; V 3.46; W 2.84; Y 2.68
V12: A 3.62; C 2.97; D 1.65; E 1.6; F 3.47; G 3.32; H 2.3; I 3.64; K 2.06; L 3.23; M 3.03; N 2.48; P 2.62; Q 2.54; R 2.49; S 3.17; T 3.16; W 2.65; Y 2.47
I13: A 3.86; C 3.25; D 1.4; E 1.77; F 3.46; G 3.21; H 2.94; K 1.98; L 3.81; M 3.97; N 3.58; P 2.66; Q 2.86; R 3.08; S 3.36; T 3.82; V 2.8; W 3.63; Y 3.22
I14: A 3.33; C 3.36; D 1.5; E 2.02; F 3.48; G 3.44; H 1.92; K 1.92; L 3.19; M 3.09; N 2.17; P 3.1; Q 2.23; R 2.56; S 3.02; T 3.25; V 3.25; W 2.71; Y 3.26
I15: A 3.05; C 3.51; D 2; E 2.43; F 2.79; G 2.98; H 1.69; K 2.04; L 3.26; M 2.88; N 1.95; P 3.92; Q 1.89; R 1.9; S 2.65; T 3.08; V 3.25; W 1.84; Y 2.26
L16: A 3.57; C 3.65; D 2.44; E 3.2; F 3.6; G 3.18; H 3.18; I 3.44; K 2.73; M 2.39; N 2.73; P 3.2; Q 3.13; R 2.33; S 3.5; T 3.47; V 3.35; W 3.28; Y 3.25
I17: A 3.54; C 3.11; D 1.74; E 2.57; F 2.58; G 2.83; H 1.85; K 2.9; L 2.96; M 3.45; N 2.79; P 2.77; Q 2.31; R 2.33; S 3.07; T 3.26; V 3.11; W 2.44; Y 2.21
V18: A 2.6; C 2.93; D 2.85; E 2.91; F 3.09; G 2.66; H 2.38; I 3.54; K 1.68; L 3.26; M 3.39; N 2.33; P 2.72; Q 2.04; R 1.27; S 2.56; T 2.87; W 3.21; Y 2.97
M19: A 2.88; C 2.78; D 3.19; E 3.07; F 3.48; G 2.99; H 3.08; I 3.64; K 2.77; L 3.68; N 3.33; P 2.66; Q 2.51; R 2.91; S 3.33; T 2.72; V 3.41; W 3.11; Y 3.09
K20: A 3.68; C 3.3; D 3.1; E 3.49; F 3.67; G 3.37; H 3.54; I 3.75; L 2.93; M 3.62; N 3.25; P 2.62; Q 2.82; R 3.15; S 4.02; T 3.59; V 4.06; W 4.14; Y 3.38
Y21: A 3.11; C 3.21; D 2.84; E 2.71; F 3.56; G 3.22; H 2.58; I 3.26; K 1.98; L 3.28; M 3.42; N 3.32; P 2.98; Q 2.99; R 1.81; S 3.37; T 3.13; V 2.96; W 3.48
R22: A 3.96; C 4.02; D 4.01; E 3.24; F 3.85; G 3.6; H 3.86; I 3.65; K 3.58; L 3.4; M 4.08; N 3.2; P 3.06; Q 3.39; S 3.82; T 3.93; V 3.7; W 4.25; Y 3.56
T23: A 3.69; C 3.53; D 3.27; E 2.74; F 3.3; G 3.81
